B1: HPV16 His6-E6 protein (natural protein)
chain: MHQKRTAMFQDPQERPRKLPQLCTELQTTIHDIILECVYCKQQLLRREVYDFAFRDLCIVYRDGNPYAVCDKCLKFYSKISEYRHYCYSLYGTTLEQQYNKPLCDLLIRCINCQKPLCPEEKQRHLDKKQRFHNIRGRWTGRCMSCCRSSRTRRETQL
notes: also called HR-HPV16 His6-E6; HPV16 E6
B2: HPV11 His6-E6 protein (natural protein)
chain: MESKDASTSATSIDQLCKTFNLSLHTLQIQCVFCRNALTTAEIYAYAYKNLKVVWRDNFPFAACACCLELQGKINQYRHFNYAAYAPTVEEETNEDILKVLIRCYLCHKPLCEIEKLKHILGKARFIKLNNQWKGRCLHCWTTCMEDLLP

Biological target: the molecule itself
Assay: SDS-PAGE and immunoblotting of the purified protein

Protein	binding result
B1	binds
B2	binds

Reference: publication PMC4963926 (Journal of Translational Medicine, 2016)
